Assay results taken from patent US20230213527A1, “COMPOSITIONS AND METHODS FOR POLYPEPTIDE ANALYSIS” (Quantum-Si Incorporated, priority 2021, published 2023).
Square brackets hold non-standard residues; d marks the D form. Ends that are not written are not given here. Cit = NC(=O)NCCC[C@H](N)C(=O)O

Assays:
PS621 = molecular target: T1, PS621 (Kluyveromyces lactis, UniProt O60014, E174T/N105S/N176F/R116K/S153T/V146T); assay: Dynamic single-molecule sequencing, recognition by PS621; type: binding; conditions: for Median interpulse duration (IPD) of arginine recognition by PS621 / Binding with the recognizer PS621: P38MAPKa-derived peptides; for Binding with the recognizer PS621: residue at position 2; for PW of ADMA-X / RS ADMA-X: ADMA peptide; for PW of ADMA-X / PW of R-X / RS ADMA-X / RS R-X: average of 10 sequencing reactions; for PW of R-X / RS R-X: unmodified arginine peptide; for RS ADMA-X / RS R-X: RS duration
T1 construct: PS621; […]
Source text: PTM detection involved isolating peptides and subjecting them to a real-time single-molecule protein sequencing reaction. Proteins were first digested into peptide fragments and conjugated C-terminally to macromolecular linkers. The peptide complexes were immobilized at the bottom of nanoscale wells on a semiconductor chip, resulting in single peptide molecules with exposed N-termini ready for sequencing. During the sequencing reaction, the surface-immobilized peptides were exposed to a solution containing dye-labeled NAA recognizers that bound on and off to their cognate NAAs with characteristic kinetic properties. Aminopeptidases in solution sequentially removed individual NAAs to expose subsequent amino acids for recognition. Fluorescence lifetime, intensity, and kinetic data were collected in real time and analyzed to determine amino acid sequence and PTM content.
The trace-level output included distinct pulsing regions called recognition segments (RSs); each RS corresponded to a period of time between aminopeptidase cleavage events during which an NAA recognizer bound on and off to its exposed target NAA. Chemical modifications to a target NAA or to a nearby downstream amino acid can modulate recognizer affinity, resulting in a characteristic change in the average pulse duration (PD) during an RS relative to an unmodified peptide. These modifications can also influence the rate of aminopeptidase cleavage of an NAA, resulting in a characteristic change in average duration of the corresponding RS.
Synthetic peptides corresponding to residues 69 to 76 of P38MAPKa were generated in three versions containing either arginine, ADMA, or SDMA at position 2: YRELRLLK (SEQ ID NO: 834), YRADMAELRLLK (SEQ ID NO: 835), and YRSDMAELRLLK (SEQ ID NO: 836). Each peptide was sequenced using three recognizers—PS610 (F, Y, W), PS961 (L, I, V), and PS621 (R)—and data were analyzed to identify RSs, determine the mean PD of each RS, and characterize the kinetic signature of each peptide.
In this example, sequencing reactions were performed using PS621 (R), PS610 (FYW), and PS961 (LIV) recognizers for 9 pairs of peptides. Each pair comprised one peptide comprising an unmodified arginine residue followed by a non-arginine amino acid (referred to as an R-X peptide) and one peptide having an identical sequence except that the unmodified arginine was modified to be ADMA (referred to as an ADMA-X peptide).

PS610 = assay: Dynamic single-molecule sequencing, recognition by PS610; type: binding, A. tumefaciens; conditions: for Median pulse duration of tyrosine recognition by PS610: P38MAPKa-derived peptides, PS610, PS961, PS621; for Pulse Width: recognizer PS610, recognition of the N-terminal amino acid
Description: The semiconductor chip was placed in the sequencing device and a chip check was performed to test electronic circuit function and to optimize laser coupling alignment. The chip was then removed from the device socket and the chip was washed twice with 50 μL of 70% isopropanol, followed by four washes with 30 μL of wash buffer (50 mM MOPS pH 8.0, 60 mM potassium acetate, 50 mM glucose, 20 mM magnesium acetate, and surfactant mix) through a flow cell attached to the chip. A second chip check was then performed. […] The chip was then washed six times with wash buffer, followed by addition of an imaging solution (wash buffer with 5 mM Trolox and an oxygen scavenging system). The laser was unblocked and the occupancy percentage (target 10-30%, Poisson distributed) was recorded by acquiring a photobleaching signal from a fluorophore attached to the peptide complex during 5 min of laser illumination. […] The laser was then blocked briefly and aminopeptidases were added to the sequencing reaction via the flow cell and mixed thoroughly (final concentration 2-8 μM PhTET2 and/or 20-80 μM PhTET3, as indicated according to the experiment). The laser was then unblocked, and data was recorded for 10 hours. For all runs, 30 μL of mineral oil was added to fluid reservoirs at each port of the flow cell to prevent evaporation during the run.
(§1) The measured signal on-chip comprises various noise components, the most dominant one being due to fluorescent emissions from diffusing recognizers in the reaction chamber. The pulse caller algorithm for a given reaction chamber starts by estimating the statistical properties of this background noise component. Once an estimate within certain error bounds has been established, the algorithm works in an online fashion observing new frames of data as they are generated. At each point in time, the algorithm maintains state indicating whether the signal is due to the background component only or a pulse from a recognizer-NAA interaction is being observed. The state transition from background to pulse is triggered using an edge detection test where the shift in signal is expected to be significant with respect to the background component's statistical distribution. The state transition from pulse to background is triggered when a small window of the most recent frames of the signal appears to conform to the background component's distribution again. The algorithm maintains an updated model of the background component as new background frames are observed. This provides robustness against drift in the signal intensity together with a feedback control loop that maintains a stable optical coupling of the laser into the chip based on any such detected drift. As detected pulses can be due to true recognizer-to-dipeptide interaction events as well as other occasional transient noise spikes, a downstream filter layer is employed to test the significance of pulse events based on their duration, intensity, and noise patterns within the context of the full timeline of the run and the entire dataset of reaction chambers.
Initial regions are determined by performing a sliding window calculation of pulse rate along the time dimension of a series of pulses. Regions with a mean pulse rate >1 pulse/min are then subdivided according to a greedy bisection approach. Here, the pulses on the left and right of each potential split are assessed for statistically significant deviation in any of four separate pulse properties—intensity, bin ratio, pulse duration, and interpulse duration—using a Mann-Whitney U Test. To define RSs, the split point with the lowest p-value for any of the four properties is used to sub-divide the region and the process continues until no regions remain with a candidate split point with p-value <10^−5 in any comparison. In this manner, transitions from one RS to the next in a region of continuous pulsing are determined a priori on the basis of changes in fluorescence properties of pulsing kinetics.

PS961 = assay: Dynamic single-molecule sequencing, recognition by PS961; type: binding, Planctomycetes; conditions: for Median PD, recognition of N-terminal leucine by PS961: peptides RLAFAYPDDD, RLIFAYPDDD, RLVFAYPDDD; for RS mean PD, N-terminal leucine by PS961 / RS mean duration for leucine recognition: leucine followed by threonine or phosphothreonine
Description: The semiconductor chip was placed in the sequencing device and a chip check was performed to test electronic circuit function and to optimize laser coupling alignment. The chip was then removed from the device socket and the chip was washed twice with 50 μL of 70% isopropanol, followed by four washes with 30 μL of wash buffer (50 mM MOPS pH 8.0, 60 mM potassium acetate, 50 mM glucose, 20 mM magnesium acetate, and surfactant mix) through a flow cell attached to the chip. A second chip check was then performed. The laser was then blocked via an integrated software-controlled shutter, peptide complex was added to a final concentration of 1-10 nM and mixed thoroughly, and the chip was incubated for 15 min. The chip was then washed six times with wash buffer, followed by addition of an imaging solution (wash buffer with 5 mM Trolox and an oxygen scavenging system). The laser was unblocked and the occupancy percentage (target 10-30%, Poisson distributed) was recorded by acquiring a photobleaching signal from a fluorophore attached to the peptide complex during 5 min of laser illumination. For NAA recognition-only assays, after peptide loading, labeled recognizer was added to a final concentration of 50 nM PS610, 100 nM PS691, or 250 nM PS961 (as indicated according to the experiment), and data was recorded for 10 hours. For dynamic sequencing assays, after peptide loading, a mixture of labeled recognizers was added to obtain final concentrations of 50 nM PS610, 100 nM PS691, and 250 nM PS961. Data was recorded for 15 min. The laser was then blocked briefly and aminopeptidases were added to the sequencing reaction via the flow cell and mixed thoroughly (final concentration 2-8 μM PhTET2 and/or 20-80 μM PhTET3, as indicated according to the experiment). The laser was then unblocked, and data was recorded for 10 hours. For all runs, 30 μL of mineral oil was added to fluid reservoirs at each port of the flow cell to prevent evaporation during the run.
as §1
Initial regions are determined by performing a sliding window calculation of pulse rate along the time dimension of a series of pulses. Regions with a mean pulse rate >1 pulse/min are then subdivided according to a greedy bisection approach.

T1 sequence (O60014 other isoform, or with tags, fused parts or gaps N105S/R116K/V146T/S153T/E174T/N176F): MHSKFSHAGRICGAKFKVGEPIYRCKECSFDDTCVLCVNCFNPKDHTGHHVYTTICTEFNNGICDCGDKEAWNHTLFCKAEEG
PS961, sequence (as listed by the source): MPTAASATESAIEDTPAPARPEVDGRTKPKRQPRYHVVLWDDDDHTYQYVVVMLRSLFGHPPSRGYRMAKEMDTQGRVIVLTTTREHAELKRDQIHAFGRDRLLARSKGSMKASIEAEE

Substance: YRADMAE (YRELRLLK) [YRADMAELRLLK, P38MAPKa peptide with asymmetric dimethylarginine at position 2]
- Median interpulse duration (IPD) of arginine recognition by PS621 (PS621): 5.82 s
- Binding with the recognizer PS621 (PS621): binding
- Median pulse duration of tyrosine recognition by PS610 (PS610): 1.47 s

Substance: LRADMAEAFAYPDDDK [QP939]
- PW of ADMA-X (PS621): 0.34 s

Substance: LRSAFAYPDDDK [QP748]
- PW of R-X (PS621): <0.12 s

Substance: YRELRLLK
- Median interpulse duration (IPD) of arginine recognition by PS621 (PS621): 10.05 s
- Binding with the recognizer PS621 (PS621): binding
- Median pulse duration of tyrosine recognition by PS610 (PS610): 0.69 s

Substance: RLIFAYPDDD
- Median PD, recognition of N-terminal leucine by PS961 (PS961): 2.22 s

Substance: LRADMAAAFAYPDDDK [QP743]
- PW of ADMA-X (PS621): 0.19 s

Substance: FRLAFAYPDDDK (FRLAFAYPDDDK-NH2; not fully specified (residue 2); also: all synthetic peptides contained C-terminal Fmoc-azidolysine) [QP1028]
- Pulse Width (PS610): 4.94 s

Substance: RLTFIAYPDDD (not fully specified (residue 3, C-terminus); also: all synthetic peptides contained C-terminal Fmoc-azidolysine)
- RS mean PD, N-terminal leucine by PS961 (PS961): 1.2 s
- RS mean duration for leucine recognition (PS961): 8.1 min

Substance: LRADMALAFAYPDDDK [QP729]
- PW of ADMA-X (PS621): 0.48 s
- RS ADMA-X (PS621): 48.5 min

Substance: LRAAFAYPDDDK [QP747]
- PW of R-X (PS621): <0.12 s

Substance: LRADMASAFAYPDDDK [QP744]
- PW of ADMA-X (PS621): 0.55 s

Substance: LRYAFAYPDDDK [QP746]
- RS R-X (PS621): 9.6 min
- PW of R-X (PS621): 0.18 s

Substance: RLAFAYPDDD
- Median PD, recognition of N-terminal leucine by PS961 (PS961): 1.29 s

Substance: LRIAFAYPDDDK [QP749]
- RS R-X (PS621): 15.4 min
- PW of R-X (PS621): 0.28 s

Substance: LRADMAIAFAYPDDDK [QP745]
- PW of ADMA-X (PS621): 0.32 s
- RS ADMA-X (PS621): 46.9 min

Substance: LRADMATAFAYPDDDK [QP945]
- PW of ADMA-X (PS621): <0.06 s

Substance: LRTAFAYPDDDK [QP942]
- PW of R-X (PS621): <0.06 s

Substance: RLVFAYPDDD
- Median PD, recognition of N-terminal leucine by PS961 (PS961): 4.21 s

Substance: LREAFAYPDDDK [QP938]
- PW of R-X (PS621): <0.06 s

Substance: LRADMAQAFAYPDDDK [QP944]
- PW of ADMA-X (PS621): 0.21 s

Substance: LRADMAVAFAYPDDDK [QP946]
- PW of ADMA-X (PS621): 0.32 s
- RS ADMA-X (PS621): 33.8 min

Substance: LRVAFAYPDDDK [QP943]
- RS R-X (PS621): 25.5 min
- PW of R-X (PS621): 0.41 s

Substance: YRIAFAYPDDDK (YRIAFAYPDDDK-NH2; not fully specified (residue 2); also: all synthetic peptides contained C-terminal Fmoc-azidolysine) [QP1030]
- Pulse Width (PS610): 0.77 s

Substance: LRADMAYAFAYPDDDK [QP742]
- PW of ADMA-X (PS621): 0.25 s
- RS ADMA-X (PS621): 39.2 min

Substance: YRSDMAELRLLK (YRELRLLK) [P38MAPKa peptide with symmetric dimethylarginine at position 2]
- Binding with the recognizer PS621 (PS621): no binding
- Median pulse duration of tyrosine recognition by PS610 (PS610): 1.48 s

Substance: YCitIAFAYPDDDK (Y[Cit]IAFAYPDDDK-NH2; also: C-terminal azidolysine (general statement for all synthetic peptides)) [QP1031]
- Pulse Width (PS610): 1.12 s

Substance: FCitLAFAYPDDDK (F[Cit]LAFAYPDDDK-NH2; also: C-terminal azidolysine (general statement for all synthetic peptides)) [QP1029]
- Pulse Width (PS610): 5.24 s

Substance: RLMFAYPDDD (not fully specified (residue 3, C-terminus); also: all synthetic peptides contained C-terminal Fmoc-azidolysine)
- Median PD of leucine recognition, first population of traces (PS961; leucine followed by methionine (LM)): 0.86 s
- Median PD of leucine recognition, second population of traces (PS961; methionine not recognized, oxidized (LMo)): 0.35 s

Substance: LRQAFAYPDDDK [QP941]
- PW of R-X (PS621): <0.06 s

Substance: RLpTFIAYPDDD
- RS mean PD, N-terminal leucine by PS961 (PS961): 0.3 s
- RS mean duration for leucine recognition (PS961): 130 min
